32 sequences from the supplement of paper PMC9170038 can be followed below.

For the data set, the system named is MS2 coat protein. Briefly: apparent KD of MS2 coat protein; designed switch direction (-1 OFF switch, 1 ON switch): -1; higher = weaker reporter binding. Put shortly: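 Normalised cluster fluorescence was curve-fitted, and each design's median over clusters is its apparent KD. Before this, SNAP-549-labelled MS2 coat protein was titrated from 0.7 or 1.5 nM, doubling to 3 µM, over RNA switches transcribed on Illumina chips by stalled E. coli RNA polymerase. Titrations had no input, 200 uM small-molecule ligand, or an oligonucleotide input, and steps lasted 0.8–1.5 h (lowest) to 10–20 min (highest).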

Setting [1] is: input ligand: microRNA oligo, concentration not stated.
The mark [2] stands for this setting: Eterna round: R95, input ligand: microRNA oligo, concentration not stated.

As to “UUAAUUAAUUAACGCAGCAAGAUCACAUGAGGAUCACCCAUGUAGGAUAUCAGCUCGUUUAGAGCUGAGAAGGACAUAGCUGCG [ExNG3/1-A2] (Eterna round: R96, puzzle: Exclusion NG 3)”, the “apparent KD of MS2 coat protein” value by setting is: (input ligand: FMN 200 uM) 87.6 nM; under setting [1], 11.1 nM; (input ligand: none) 18 nM.
As for “UUAAUUAAUUAUAUAAGAUCACAUGAGGAUCACCCAUGUAUAUAGGAUAUCAGCUCGUGUAGAGCUGAGAAGGAUAUACAAUAU [ExNG3/3-B3] (Eterna round: R96, puzzle: Exclusion NG 3)”, the “apparent KD of MS2 coat protein” value is, setting by setting: (input ligand: FMN 200 uM) 241 nM; under setting [1], 210 nM; (input ligand: none) 175 nM.
For “UUAAUUAAUUGACUGCAAGAUCAACAUGAGGAUCACCCAUGUGAGGAUAUCAGCUCGUGUAGAGCUGAGAAGGCACAAGCAGUC [ExNG3/16-A3] (Eterna round: R96, puzzle: Exclusion NG 3)”, the “apparent KD of MS2 coat protein” value came out at 73.6 nM (input ligand: FMN 200 uM), 13.4 nM under setting [1] and 21.8 nM (input ligand: none).
Consider “UUAAUUAAUUGCGCAAGAUCACAUGAGGAUCACCCAUGUAUAUAGGAUAUCAGCUCGUGUAGAGCUGAGAAGGAUAUACAGCGC [ExNG3/3-A3] (Eterna round: R96, puzzle: Exclusion NG 3)”, for which the “apparent KD of MS2 coat protein” value reads like this: (input ligand: FMN 200 uM) 886 nM; under setting [1], 419 nM; (input ligand: none) 495 nM.
In the same order, the values of “UUAAUUAGCUCGCUAGAUCCUCACAUGAGGAUCACCCAUGUGCAGGAUAUCAGCUCGAUUAGAGCUGAGAAGGGCACUGCGAGC [ExNG3/10-A1] (Eterna round: R96, puzzle: Exclusion NG 3)” are 160 nM, 89.5 nM and 104 nM.
“UUAAUUCUGAUUCUUGAAAUACAUGAGGAUCACCCAUGUUCACAGGAUAUUGAUUAUGUUAGUAACAAGAAGGGUGUAACAUAU [JR_ExcNG3_Sub037] (Eterna round: R96, puzzle: Exclusion NG 3)”: the “apparent KD of MS2 coat protein” value under setting [1] stood at 26.4 nM.
As for “UUAAUUUAAGGGAUAGAUCAUUACAUGAGGAUCACCCAUGUUGAGGAUAUCAGCUCGUGUAGAGCUGAGAAGGCAACAAUAGGG [ExNG3/14-A3] (Eterna round: R96, puzzle: Exclusion NG 3)”, the “apparent KD of MS2 coat protein” value by setting is: (input ligand: FMN 200 uM) 249 nM; under setting [1], 377 nM; (input ligand: none) 92.3 nM.
Regarding “UUACGGAUAGAGGAUAUAUUAAGGAAGGUUACGAUAGAAGGCUAGACAUGAGGAUCACCCAUGUAUAUUGGGAU [JR_Ex6_Sub072] (Eterna round: R97, puzzle: Exclusion 6)”, the “apparent KD of MS2 coat protein” value reads like this: (input ligand: FMN 200 uM) 172 nM; (input ligand: none) 144 nM.
With “UUACGUUUAGAGGAUAUAUUAAGGAAGGUAACGAUAGAAGGCUAGACAUGAGGAUCACCCAUGUAUAUAGGGAU [JR_Ex6_Sub071] (Eterna round: R97, puzzle: Exclusion 6)”, the “apparent KD of MS2 coat protein” value reads like this: (input ligand: FMN 200 uM) 141 nM; (input ligand: none) 54 nM.
In the same order, the values of “UUAGAGUCAGGAUAUGCAGCUCCCUGUAGGGCCGAACAGCAGUAGAAGGGACAUGAGGAUCACCCAUGUGAUAG [Eternabot (L2) Solution 52] (Eterna round: R97, puzzle: Exclusion 4)” are 86.1 nM and 81.5 nM.
Consider “UUAGAUAGGUCAGGAUAUCGAUUAUUGUAUAGUAUGAUUUACAUGAGGAUCACCCAUGUUAAAUACGAGAAGGGACGUUAGAUU [JR_ExcNG2_Sub022] (Eterna round: R96, puzzle: Exclusion NG 2)”, for which the “apparent KD of MS2 coat protein” value under setting [1] came to 16.9 nM.
Take “UUAGAUUAUUGAGGAUAUGGAUAUUUUUAUUAACCAGAAGGCAAACUCAACAUGAGGAUCACCCAUGUAUAAAGGGUAUUAGUU [JR_ExcNG1_Sub098] (Eterna round: R96, puzzle: Exclusion NG 1)”: the “apparent KD of MS2 coat protein” value under setting [1] amounted to 71.2 nM.
For “UUAGCGUAUGUAAGGAUAUGCUGGUCUAAUGAUCAGCAGAAGGUACAUGAGGAUCACCCAUGUGUAUUCGUUAU [Mod of JL 7 - Jieux - Brourd's mod of Exclusion 4] (Eterna round: R97, puzzle: Brourd's mod of Exclusion 4)”, the “apparent KD of MS2 coat protein” value was found to be 75.9 nM (input ligand: FMN 200 uM) and 18.4 nM (input ligand: none).
For “UUAGGCUGAAGAUCAAUUAAUUAACAUGAGGAUCACCCAUGUAAGGAUAUCAGCUCGAUUAGAGCUGAGAAGGUACAUGCAGCC [ExNG3/18-A1] (Eterna round: R96, puzzle: Exclusion NG 3)”, the “apparent KD of MS2 coat protein” value under setting [1] came out at 102 nM.
With “UUAUAAAGUGUGAGGAUAUGCUGGUCCAUAGAUCAGCAGAAGGCACAUGAGGAUCACCCAUGUAAUAUAUUUUU [Mat - Exclusion 4 - JL Mod - D43] (puzzle: Brourd's mod of Exclusion 4)”, the “apparent KD of MS2 coat protein” value under setting [2] came out at 27.2 nM.
For the sequence “UUAUAACAUGAGGAUCACCCAUGUUAGGAUAUCGCAGUAAGCUUCAGUAAUGAGCAUUCGAGAAGGAACGGGUA [Eternabot (L2) Solution 63] (Eterna round: R97, puzzle: Exclusion 1)”, the “apparent KD of MS2 coat protein” value (input ligand: FMN 200 uM) came to 22 nM and the “apparent KD of MS2 coat protein” value (input ligand: none) amounted to 22 nM.
Turning to “UUAUACGCUGAGGAUAUCUUCACUAAAGUGUGAAGAGAAGGCGGUACAUGAGGAUCACCCAUGUCUAUGGGCAG [Ex-6 Malc#18] (puzzle: Exclusion 6)”, the “apparent KD of MS2 coat protein” value (Eterna round: R95, input ligand: FMN 200 uM) turned out to be 596 nM; the “apparent KD of MS2 coat protein” value under setting [2] is 568 nM; the “apparent KD of MS2 coat protein” value (Eterna round: R95, input ligand: none) is 282 nM.
For the sequence “UUAUACGUUGAGGAUAUGCGAAUAAGUAUAGUUGCAGAAGGCGAUACAUGAGGAUCACCCAUGUUCAUGGACAU [LRO-Ex6-04] (puzzle: Exclusion 6)”, the “apparent KD of MS2 coat protein” value under setting [2] came to 106 nM.
Same read-out and setting: next, “UUAUACGUUGAGGAUAUGCGAAUUAGUAUAGUUGCAGAAGGCGAUACAUGAGGAUCACCCAUGUUUAUGGGCAU [LRO-Ex6-06] (puzzle: Exclusion 6)”: 152 nM.
As to “UUAUAGUAUGUAGGAUAUCGGUCAGUUUCUGAUCGAGAAGGACAUGAGGAUCACCCAUGUAAGGCUACCGGUUUCUGGUGGCCU [JL ENG1 3.52] (Eterna round: R96, puzzle: Exclusion NG 1)”, the “apparent KD of MS2 coat protein” value is, setting by setting: (input ligand: FMN 200 uM) 94.4 nM; under setting [1], 18.5 nM; (input ligand: none) 20.9 nM.
Consider “UUAUAUAGAGUGAGGAUAUGCUGGUCCUUGGAUCAGCAGAAGGCACAUGAGGAUCACCCAUGUAAAAUAAUAUU [Mat - Exclusion 4 - JL Mod - D39] (puzzle: Brourd's mod of Exclusion 4)”, for which, under setting [2], the “apparent KD of MS2 coat protein” value turned out to be 21.1 nM.
With “UUAUUAAAUGUAGGAUAUGCAUAUUAUUAUUAUGCAGAAGGACAUGAGGAUCACCCAUGUAUAUUAUUAUUAUAUAUUAUAUAU [Title] (Eterna round: R96, puzzle: Exclusion NG 1)”, the “apparent KD of MS2 coat protein” value under setting [1] is 26.5 nM.
“UUAUUAAGUGUGAGGAUAUGCUGGUCCUUGGAUCAGCAGAAGGCACAUGAGGAUCACCCAUGUACAAUAUAUUA [Mat - Exclusion 4 - JL Mod - D30] (Eterna round: R96, puzzle: Brourd's mod of Exclusion 4)”: the “apparent KD of MS2 coat protein” value is, setting by setting: (input ligand: FMN 200 uM) 235 nM; under setting [1], 30.5 nM; (input ligand: none) 42.1 nM.
On to “UUAUUAAGUGUGAGGAUAUGCUGGUCCUUGGAUCAGCAGAAGGCACAUGAGGAUCACCCAUGUACAAUAUAUUA [Mat - Exclusion 4 - JL Mod - D30] (puzzle: Brourd's mod of Exclusion 4)”, for which the “apparent KD of MS2 coat protein” value under setting [2] was found to be 38.7 nM.
As for “UUAUUAGCAGGAUAUAUCCGGGAUCACAUGAGGAUCACCCAUGUGACCGCUUGAGAUUCUAUAGAAGGGCUUUAUU [Mod of ViennaUCT 32 - Jieux - Exclusion 5] (Eterna round: R97, puzzle: Exclusion 5)”, the “apparent KD of MS2 coat protein” value is, setting by setting: (input ligand: FMN 200 uM) 19.6 nM; (input ligand: none) 18.6 nM.
As for “UUAUUAUAUGUAGGAUAUGCAUAUUAUUAUUAUGCAGAAGGACAUGAGGAUCACCCAUGUAUAUUAUUAUUAUAUAUUGUAUAU [Title] (Eterna round: R96, puzzle: Exclusion NG 1)”, the “apparent KD of MS2 coat protein” value under setting [1] came to 23.2 nM.
Still for that read-out and setting: the result for “UUAUUAUAUGUAGGAUAUGCAUAUUAUUAUUAUGCAGAAGGACAUGAGGAUCACCCAUGUAUAUUAUUAUUGUAUAUUAUAUAU [Title] (Eterna round: R96, puzzle: Exclusion NG 1)” reads 25.7 nM; that for “UUAUUAUAUGUAGGAUAUGCGUAUUAUUAUUAUGCAGAAGGACAUGAGGAUCACCCAUGUAUAUUAUUAUUAUAUAUUAUAUAU [Title] (Eterna round: R96, puzzle: Exclusion NG 1)”, 23.5 nM.
In the case of “UUAUUAUAUGUAGGAUAUGCGUAUUAUUGUUAUGCAGAAGGACAUGAGGAUCACCCAUGUAUAUUAUUGUUAUAUAUUAUAUGU [Title] (Eterna round: R96, puzzle: Exclusion NG 1)”, the “apparent KD of MS2 coat protein” value is 110 nM (input ligand: FMN 200 uM), 26.6 nM under setting [1] and 30.3 nM (input ligand: none).
In the case of “UUAUUGUGAGGAUAUCAGGUGUGCUAGCGUACUGGUACAUCUGAGAAGGCACAUGAGGAUCACCCAUGUUUCUU [JL-ex4-3.22 Brourd mod] (Eterna round: R96, puzzle: Exclusion 4)”, the “apparent KD of MS2 coat protein” value was found to be 69.6 nM (input ligand: FMN 200 uM), 18.9 nM under setting [1] and 25 nM (input ligand: none).
As for “UUAUUGUGAGGAUAUCAGGUGUGCUAGCGUACUGGUACAUCUGAGAAGGCACAUGAGGAUCACCCAUGUUUCUU [JL-ex4-3.22 Brourd mod] (puzzle: Exclusion 4)”, the “apparent KD of MS2 coat protein” value under setting [2] was 21.1 nM.
On to “UUAUUGUUAGAGGAUAUAUUAAGGUAUGCUUUGAUAGAAGGCUAUACAUGAGGAUCACCCAUGUUUUUUGGGAU [JR_Ex6_Sub076] (Eterna round: R97, puzzle: Exclusion 6)”, for which the “apparent KD of MS2 coat protein” value (input ligand: FMN 200 uM) came to 654 nM and the “apparent KD of MS2 coat protein” value (input ligand: none) stood at 328 nM.
